Measurements reported in US20190015361A1 (Maxwell Biosciences, Inc., priority 2017, published 2019).

Tested on: Aβ40 (t=0 days), Aβ42 (t=0 days), Aβ42 (t=24 days)
Assay: SPRi interaction with the three immobilized Aβ forms
Format: binding, human
Settings: analyte flowed onto the SPRi chip for 10 minutes, all three Aβ forms

Aβ40 (t=0 days), Aβ42 (t=0 days), Aβ42 (t=24 days), sequence (P05067 672-711 limits assumed): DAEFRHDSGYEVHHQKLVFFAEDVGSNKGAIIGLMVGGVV

B1: ovalbumin: non-correlated protein used as negative control sample in SPRi (Sigma-Aldrich, A5503) (protein)
chain: GSIGAASMEFCFDVFKELKVHHANENIFYCPIAIMSALAMVYLGAKDSTRTQINKVVRFDKLPGFGDSIEAQCGTSVNVHSSLRDILNQITKPNDVYSFSLASRLYAEERYPILPEYLQCVKELYRGGLEPINFQTAADQARELINSWVESQTNGIIRNVLQPSSVDSQTAMVLVNAIVFKGLWEKAFKDEDTQAMPFRVTEQESKPVQMMYQIGLFRVASMASEKMKILELPFASGTMSMLVLLPDEVSGLEQLESIINFEKLTEWTSSNVMEERKIKVYLPRMKMEEKYNLTSVLMAMGITDVFSSSANLSGISSAESLKISQAVHAAHAEINEAGREVVGSAEAGVDAASVSEEFRADHPFLFCIKHIATNAVLFFGRCVSP
SPRi interaction signal: did not produce interaction signals
